Molecular target: the molecule itself
Assay: crystal structure; NavMs pore crystals grown in the presence of sodium ions; open conformation; four identical chains arranged in two half-tetramers, with the tetramers completed by crystal symmetry

Protein | stoichiometry N
NavMs sodium channel pore protein (wild-type pore of NavMs from M. marinus MC-1 with its complete C-terminal domain) (domain or fragment, Magnetococcus marinus MC-1) GVGSVAALLTVVFYIAAVMATNLYGATFPEWFGDLSKSLYTLFQVMTLESWSMGIVRPVMNVHPNAWVFFIPFIMLTTFTVLNLFIGIIVDAMAITKEQEEEAKTGHHQEPISQTLLHLGDRLDRIEKQLAQNNELLQRQQPQKK | 4
NavMs sodium channel pore protein, E178D selectivity filter mutant (domain or fragment, Magnetococcus marinus MC-1) GVGSVAALLTVVFYIAAVMATNLYGATFPEWFGDLSKSLYTLFQVMTLDSWSMGIVRPVMNVHPNAWVFFIPFIMLTTFTVLNLFIGIIVDAMAITKEQEEEAKTGHHQEPISQTLLHLGDRLDRIEKQLAQNNELLQRQQPQKK | 4
